Patent publication US20160223529A1 (UNIVERSITY OF QUEENSLAND, published 2016)

T1: TVMV-AI-ePDZ-Binder
T1 chain: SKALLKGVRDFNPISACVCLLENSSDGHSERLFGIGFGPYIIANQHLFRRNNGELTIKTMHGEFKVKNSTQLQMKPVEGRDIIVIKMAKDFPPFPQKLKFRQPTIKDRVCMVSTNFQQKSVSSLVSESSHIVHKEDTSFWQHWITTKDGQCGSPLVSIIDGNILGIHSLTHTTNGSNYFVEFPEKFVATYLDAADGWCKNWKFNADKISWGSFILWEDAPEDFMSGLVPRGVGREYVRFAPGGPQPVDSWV


Columns and labels:
Calmodulin = Calmodulin (Homo sapiens (Human), UniProt P0DP23 4-149); test: Protease activation assay: TVMV activity on a fluorogenic substrate at different calmodulin concentrations (FIG. 3)
TVMV-AI-ePDZ-Binder = biological target: T1, TVMV-AI-ePDZ-Binder; test: Protease activation assay: TVMV activity on a fluorogenic substrate (FIG. 5)

| Binder | binding result (Calmodulin) | binding result (TVMV-AI-ePDZ-Binder) |
| --- | --- | --- |
| TVMV-AI-CalmodulinBinder (enzyme, also called TVMV based calmodulin sensor) SKALLKGVRDFNPISACVCLLENSSDGHSERLFGIGFGPYIIANQHLFRRNNGELTIKTMHGEFKVKNSTQLQMKPVEGRDIIVIKMAKDFPPFPQKLKFRQPTIKDRVCMVSTNFQQKSVSSLVSESSHIVHKEDTSFWQHWITTKDGQCGSPLVSIIDGNILGIHSLTHTTNGSNYFVEFPEKFVATYLDAADGWCKNWKFNADKISWGSFILWEDAPEDFMSGLVPRGVGREYVRFAPRWKKNFIAVSAANRFKKISSSGAL | binds | – |
| ePDZ (designed binder) SGTSPELGFSISGGVGGRGNPFRPDDDGIFVTRVQPEGPASKLLQPGDKIIQANGYSFINIEHGQAVSLLKTFQNTVELIIVREVGNGAKQEIRVRVEKDGGSGGVSSVPTNLEVVAATPTSLLISWDASYYGVSYYRITYGETGGNSPVQEFTVPYSSSTATISGLKPGVDYTITVYAYSDYYGSHHYSPISINYRTSGC | – | binds |
